Laboratory results: the supplement of paper PMC9233669
Fewer inactive variants are shown than the library holds.

How the values were obtained:
[1] = tested on: biotinyl-Phe-oxazolone; test: self-aminoacylation, catalytic enhancement (BFO) (fold over background); higher = more active; k-Seq, kA / k0A0; sequences stand for … in GGGAAUGGAUCCACAUCUACGAAUUC…UUCACUGCAGACUUGACGAAGCUG
Summary of the method: (§1)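 Mutagenized RNA pools (0.43 μM; 21-nt variable region) were treated with 2–1250 μM of each biotinyl-aminoacyl-oxazolone. Conditions were 50 μL HEPES/NaCl/KCl/MgCl2/CaCl2 buffer, 5% acetonitrile, pH 6.9–7.0, room temperature, 90 minutes. Catalytic enhancement, the median kA relative to the uncatalyzed rate, was derived from streptavidin capture, qPCR and Illumina sequencing.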

[2] = tested on: biotinyl-Ile-oxazolone; test: self-aminoacylation, catalytic enhancement (BIO) (fold over background); higher = more active; k-Seq, kA / k0A0; sequences stand for … in GGGAAUGGAUCCACAUCUACGAAUUC…UUCACUGCAGACUUGACGAAGCUG
Summary of the method: as §1

[3] = tested on: biotinyl-Met-oxazolone; test: self-aminoacylation, catalytic enhancement (BMO) (fold over background); higher = more active; k-Seq, kA / k0A0; sequences stand for … in GGGAAUGGAUCCACAUCUACGAAUUC…UUCACUGCAGACUUGACGAAGCUG
Summary of the method: as §1

[4] = tested on: biotinyl-Val-oxazolone; test: self-aminoacylation, catalytic enhancement (BVO) (fold over background); higher = more active; k-Seq, kA / k0A0; sequences stand for … in GGGAAUGGAUCCACAUCUACGAAUUC…UUCACUGCAGACUUGACGAAGCUG
Summary of the method: as §1

[5] = tested on: biotinyl-Leu-oxazolone; test: self-aminoacylation, catalytic enhancement (BLO) (fold over background); higher = more active; k-Seq, kA / k0A0; sequences stand for … in GGGAAUGGAUCCACAUCUACGAAUUC…UUCACUGCAGACUUGACGAAGCUG
Summary of the method: as §1

[6] = tested on: biotinyl-Trp-oxazolone; test: self-aminoacylation, catalytic enhancement (BWO) (fold over background); higher = more active; k-Seq, kA / k0A0; sequences stand for … in GGGAAUGGAUCCACAUCUACGAAUUC…UUCACUGCAGACUUGACGAAGCUG
Summary of the method: as §1

Sequence | self-aminoacylation [1] | self-aminoacylation [2] | self-aminoacylation [3] | self-aminoacylation [4] | self-aminoacylation [5] | self-aminoacylation [6]
CUACUUCAAACAAUCCGUCUG [Fam1A.1 aminoacylation ribozyme variant] | 1.92 | 0.788 | 0.673 | 0.806 | 0.661 | 1.26
GUUACCCUGGUCAUCCAGUGA [Fam2.1 aminoacylation ribozyme variant] | 52.7 | 4.66 | 7.39 | 4.7 | 7.84 | 9.02
CUCCUUCAAACAAUCGGUUUG [Fam1A.1 aminoacylation ribozyme variant] | 43.9 | 1.17 | 1.3 | 1.4 | 1.89 | 30.6
AUUCACCUAGGUCAUCCGUUG [Fam2.2 aminoacylation ribozyme variant] | 4.37 | 1.31 | 0.997 | 1.19 | 1.16 | 0.699
AUUACCCUGCUCAUCGAGUGA [Fam2.1 aminoacylation ribozyme variant] | 2.7 | 1.34 | 1.99 | 1.52 | 1.87 | 2.33
ACGUUUGCUGAUAGUCGCAAG [Fam3.1 aminoacylation ribozyme variant] | 4.7 | 1.52 | 1.12 | 1.35 | 1.57 | 1.69
AUUACCCUGGUCCUUGAGUGA [Fam2.1 aminoacylation ribozyme variant] | 56.2 | 3.86 | 8.05 | 3.86 | 8.35 | 9.98
AAGUUUGCUAAUUUUCGCAAG [Fam3.1 aminoacylation ribozyme variant] | 0.884 | 1.07 | 1.06 | 1.1 | 1.23 | 1.85
CUACUUCACACAAUCCGUCUG [Fam1A.1 aminoacylation ribozyme variant] | 0.747 | 0.859 | 0.913 | 0.854 | 0.81 | 0.495
AUUCAGCUAGCUCAUCGGGUG [Fam2.2 aminoacylation ribozyme variant] | 20.2 | 2.69 | 3.07 | 3.41 | 3.86 | 3.74
CCAUCCUUCAAGCAAUCGGUC [Fam1B.1 aminoacylation ribozyme variant] | 16.4 | 1.13 | 1.15 | 1.19 | 1.3 | 9.38
AUUUACCUAGGUCGUCGGGUG [Fam2.2 aminoacylation ribozyme variant] | 9.82 | 1.46 | 1.61 | 1.82 | 1.88 | 0.963
AAGUUUCCUCAUAGUCGCAAG [Fam3.1 aminoacylation ribozyme variant] | 3.38 | 2.1 | 1.39 | 2.08 | 2 | 1.84
AUUCAACUAGAUCAUCGGGUG [Fam2.2 aminoacylation ribozyme variant] | 9.72 | 1.82 | 2.44 | 1.77 | 2.53 | 2.93
AAGUUUACUAAUAGUCGCCAG [Fam3.1 aminoacylation ribozyme variant] | 1.61 | 1.42 | 1.23 | 1.21 | 1.24 | 1.31
CUACUUCAAACAAUCGAUCUC [Fam1A.1 aminoacylation ribozyme variant] | 2.76 | 0.502 | 0.322 | 0.799 | 0.5 | 0.881
AUUCACCUAGGUCGUGGGGUG [Fam2.2 aminoacylation ribozyme variant] | 5.74 | 1.54 | 1.5 | 1.61 | 1.97 | 1.66
AAGCUUGCUAAUAGUCGUAAG [Fam3.1 aminoacylation ribozyme variant] | 8.49 | 1.26 | 1.12 | 1.48 | 0.843 | 2.69
CUUACCCUGGUCAUCGGGUGA [Fam2.1 aminoacylation ribozyme variant] | 93.6 | 5.25 | 16 | 7.68 | 17.1 | 13.9
CCACACUUCAAGGAUUCGGUC [Fam1B.1 aminoacylation ribozyme variant] | 0.958 | 1.85 | 1.83 | 2.02 | 2.02 | 1.96
CUACUUCCAACUAUCGGUCUG [Fam1A.1 aminoacylation ribozyme variant] | 1.08 | 0.81 | 0.833 | 0.92 | 0.942 | 0.744
AACUUUGCUAAUAGUCGCUAG [Fam3.1 aminoacylation ribozyme variant] | 2.6 | 2.28 | 2.22 | 1.64 | 2.78 | 1.84
AUCAGCCUGGUCAUCGAGUGA [Fam2.1 aminoacylation ribozyme variant] | 32.5 | 3.99 | 4.28 | 3.49 | 4.62 | 6.36
AUUACCCUGGUCAUCGUGUGC [Fam2.1 aminoacylation ribozyme variant] | 1.25 | 0.992 | 0.938 | 0.881 | 1.12 | 0.349
AUUACCCUGGUUAUCGAAUGA [Fam2.1 aminoacylation ribozyme variant] | 0.877 | 0.965 | 0.971 | 0.846 | 0.866 | 0.677
AUUCACCUAGGACAUCGGGUG [Fam2.2 aminoacylation ribozyme variant] | 18.8 | 2.55 | 3.19 | 2.6 | 3.89 | 3.1

Sequence | self-aminoacylation [1] | self-aminoacylation [2] | self-aminoacylation [3] | self-aminoacylation [4] | self-aminoacylation [5] | self-aminoacylation [6]
AAGUUUGCUCAUAGUCGCAAA [Fam3.1 aminoacylation ribozyme variant] | 1.45 | 1.49 | 1.69 | 1.41 | 1.44 | 1.49
CUAGUUCAACCAAUCGGUCUG [Fam1A.1 aminoacylation ribozyme variant] | 3.36 | 1 | 0.955 | 0.913 | 1.06 | 2.82
AACUUUGCUAAUAGUCGCGAG [Fam3.1 aminoacylation ribozyme variant] | 19.5 | 3.52 | 2.99 | 2.76 | 3.74 | 3.11
AUUACCCGGGUGAUCGAGUGA [Fam2.1 aminoacylation ribozyme variant] | 46.1 | 3.2 | 7.21 | 4.2 | 7.76 | 8.54
CUACUUCAAACAAACGGGCUG [Fam1A.1 aminoacylation ribozyme variant] | 1.65 | 1.2 | 0.993 | 0.934 | 0.999 | 0.862
ACGUUUUCUAAUAGUCGCAAG [Fam3.1 aminoacylation ribozyme variant] | 2.79 | 1.75 | 1.59 | 1.53 | 1.67 | 1.55
UUUACCCUGGUCAUGGAGUGA [Fam2.1 aminoacylation ribozyme variant] | 9.54 | 2.58 | 3.46 | 2.44 | 3.04 | 3.99
AAGUUUGCUAAUAGUCCUAAG [Fam3.1 aminoacylation ribozyme variant] | 14.5 | 1.21 | 1.31 | 1.13 | 1.05 | 4.71
CCACACGUCAAGCAAGCGGUC [Fam1B.1 aminoacylation ribozyme variant] | 0.494 | 0.826 | 1.24 | 1.57 | 1.19 | 0.697
AUUCACCUAGGUCAUCGAGAG [Fam2.2 aminoacylation ribozyme variant] | 1.13 | 0.915 | 1.07 | 0.848 | 1.47 | 0.394
GUAACCCUGGUCAUCGAGUGA [Fam2.1 aminoacylation ribozyme variant] | 75.7 | 7.01 | 15.2 | 6.13 | 15.6 | 15.1
CCACAUUUCAAGCAGUCGGUC [Fam1B.1 aminoacylation ribozyme variant] | 0.868 | 1.15 | 0.9 | 1.15 | 0.899 | 0.803
AUCACCAUGGUCAUCGAGUGA [Fam2.1 aminoacylation ribozyme variant] | 58.9 | 5.49 | 10.3 | 5.56 | 11.7 | 13.2
AUUACCCUGCUCAUCGGGUGA [Fam2.1 aminoacylation ribozyme variant] | 33.5 | 2.63 | 4.81 | 3.34 | 5.17 | 6
CUACUUCCAACAAUCUGUCUG [Fam1A.1 aminoacylation ribozyme variant] | 0.746 | 0.776 | 0.488 | 0.757 | 0.59 | 0.438
AUUACCCCGGUCAUCGAGUCA [Fam2.1 aminoacylation ribozyme variant] | 1.3 | 1.24 | 0.928 | 0.988 | 1.06 | 0.734
AUUCACCUAGGGAAUCGGGUG [Fam2.2 aminoacylation ribozyme variant] | 36.4 | 3.54 | 5.05 | 3.23 | 7.44 | 4.86
CCACACCCCAAGCAAUCGGUC [Fam1B.1 aminoacylation ribozyme variant] | 1.04 | 1.6 | 0.627 | 1.37 | 1.04 | 0.888
ACGUUUGCUAAUAGUCGCAAU [Fam3.1 aminoacylation ribozyme variant] | 2.06 | 1.66 | 1.45 | 1.33 | 1.51 | 1.53
CUACUUCACACAAACGGUCUG [Fam1A.1 aminoacylation ribozyme variant] | 1.07 | 0.771 | 0.626 | 0.746 | 0.746 | 0.616
CUUACCCUGGGCAUCGAGUGA [Fam2.1 aminoacylation ribozyme variant] | 20.7 | 2.57 | 5.55 | 3.33 | 7.09 | 6.01
CUUCUCCAAACAAUCGGUCUG [Fam1A.1 aminoacylation ribozyme variant] | 1.26 | 0.67 | 0.772 | 0.831 | 0.723 | 0.962
AAGUGUGCUAAUAGUCGCUAG [Fam3.1 aminoacylation ribozyme variant] | 0.823 | 1.23 | 0.976 | 0.925 | 0.893 | 0.788
CUAUCUCAAACAAUCGGUCUG [Fam1A.1 aminoacylation ribozyme variant] | 1.87 | 0.789 | 0.856 | 0.781 | 0.628 | 1.35
ACUACCCUGGUCAUAGAGUGA [Fam2.1 aminoacylation ribozyme variant] | 38.1 | 3.26 | 6.89 | 3.19 | 7.11 | 7.77
